Results as given in patent US20100104554A1 (FUSION ANTIBODIES LIMITED A CORPORATION OF GREAT BRITIAN, published 2010).
Each block holds one binder with its values, some of them ahead of it.

What was measured:
[1] = target: T1, human cathepsin L (Calbiochem) (human, UniProt P07711 114-333, limits assumed); test: fluorometric enzyme inhibition assay with Z-Phe-Arg-AMC, non-linear regression of progress curves
T1 construct: also called CatL; Cat L
Protocol: (§1) Enzymatic assays were used to ascertain the ability of the rCatSPP to inhibit the peptidolytic activity of human cathepsins S, L, K, V and B (Calbiochem). Assays were performed in triplicate in 96-well microtitre plates in the presence of 100 mM sodium acetate, 1 mM ethylenediaminetetraacetate (EDTA), 0.1% Brij and 1 mM: dithiothreitol (DTT) at pH 5.5. CatS activity was monitored using the fluorigenic substrate carbobenzloxy-L-valinyl-L-vahnyl-L-arginylamido-4-methyl coumarin (Z-Val-Val-Arg-AMC, 25 μM), assays for cathepsins L, K and V were performed using carbobenzloxy-L-phenylalanyl-L-arginylamido-4-methyl coumarin (Z-Phe-Arg-AMC, 25 μM) and assays for CatB were performed using carbobenzloxy-L-arginylamido -L-arginylamido-4-methyl coumarin (Z-Arg-Arg-AMG, 25 μM) as substrates. Purified rCatSPP was added to assays as required at various concentrations (0-1000 nM). All experiments were performed using a Cytofluor® 4000 spectrofluorimeter with excitation at 395 nm and emission at 460 nm. To confirm that the rCatSPP-Fc also had the ability to inhibit the activity of CatS, flurometric assays were performed using CatS, Z-Val-Val-Arg-AMC, 25 μM) in the presence of the rCatSPP-Fc (0 nM-200 nM).
(§2) Fluorescence was monitored for 30 mins and the RFU plotted over time to generate fluorometric progress curves. […] All fluorometric assays were performed in replicates of three.

[2] = target: T2, human cathepsin K (Calbiochem) (human, UniProt P43235 115-329); test: as above
T2 construct: also called CatK; Cat K
T2 sequence (looked up): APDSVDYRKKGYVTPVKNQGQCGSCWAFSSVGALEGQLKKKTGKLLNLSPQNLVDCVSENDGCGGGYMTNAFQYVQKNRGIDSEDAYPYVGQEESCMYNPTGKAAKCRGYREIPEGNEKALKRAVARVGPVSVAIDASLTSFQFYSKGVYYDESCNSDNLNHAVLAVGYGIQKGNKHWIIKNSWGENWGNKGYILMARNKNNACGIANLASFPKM
Protocol: as §1, §2

[3] = target: T3, human cathepsin V (Calbiochem) (human, UniProt O60911 114-334); test: as above
T3 construct: also called CatV; Cat V
Protocol: as §1, §2

[4] = target: T4, human cathepsin S (Calbiochem) (human, UniProt P25774 115-331); test: cell-based or functional assay
[5] = target: T4, human cathepsin S (Calbiochem); test: fluorometric enzyme inhibition assay with Z-VVR-AMC, rates taken from progress curves
Protocol: as §1, with “To confirm that the rCatSPP-Fc also had the ability to inhibit the activity of CatS, flurometric assays were performed using CatS, Z-Val-Val-Arg-AMC, 25 μM) in the presence of the rCatSPP-Fc (0 nM-200 nM).” left out
The inhibition of CatS peptidolytic activity using CatSPP Fc was measured. The rCatSPP-Fc was assessed by fluorometric assay using the fluorogenic substrate Z-VVR-AMC to determine if the species had the ability to retain its inhibition of CatS after the addition of the Fc-domain without any negative effects on the kinetics. […]

T1 sequence (P07711 114-333 limits assumed): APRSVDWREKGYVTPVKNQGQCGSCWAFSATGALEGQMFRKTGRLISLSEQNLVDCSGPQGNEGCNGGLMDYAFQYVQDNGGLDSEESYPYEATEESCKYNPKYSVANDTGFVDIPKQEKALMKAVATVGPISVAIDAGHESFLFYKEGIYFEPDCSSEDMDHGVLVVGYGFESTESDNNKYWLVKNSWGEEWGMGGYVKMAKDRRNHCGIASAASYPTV
T3 sequence (O60911 114-334 limits assumed): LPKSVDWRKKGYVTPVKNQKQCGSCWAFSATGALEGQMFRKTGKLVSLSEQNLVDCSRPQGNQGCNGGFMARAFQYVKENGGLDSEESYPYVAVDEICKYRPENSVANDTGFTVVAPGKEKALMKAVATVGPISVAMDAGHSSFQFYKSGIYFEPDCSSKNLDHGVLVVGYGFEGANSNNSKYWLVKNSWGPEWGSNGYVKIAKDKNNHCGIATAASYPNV

Ki [1]: 0.62 nM
Ki [2]: 17.6 nM
Ki [3]: 4.8 nM
EC50 of MDA-MB-231 tumour cell invasion (modified Boyden chamber, Matrigel) [4]: 78 nM
B1: recombinant human cathepsin S propeptide (residues 17-113) with N-terminal hexahistidine tag, expressed from pQE30 (peptide)
chain: MRGSHHHHHHGSQLHKDPTLDHHWHLWKKTYGKQYKEKNEEAVRRLIWEKNLKFVMLHNLEHSMGMHSYDLGMNHLGDMTSEEVMSLTSSLRVPSQWQRNITYKSNPNRVDLQPSLIS
notes: also called rCatSPP; CatSPP

Ki [5]: 8.9 nM
EC50 of MDA-MB-231 tumour cell invasion (modified Boyden chamber, Matrigel) [4]: 8.3 nM
B2: recombinant cathepsin S propeptide with C-terminal IgG2 Fc domain and N-terminal His-tag, expressed from pRSET A-Fc (Fc fusion)
chain: QLHKDPTLDHHWHLWKKTYGKQYKEKNEEAVRRLIWEKNLKFVMLHNLEHSMGMHSYDLGMNHLGDMTSEEVMSLMSSLRVPSQWQRNITYKSNPNR
notes: About 46 kDa, made in E. coli BL21 (DE3) pLysS; also called rCatSPP-Fc; CatSPP-Fc; not shown: N-terminal His-tag and leader from the pRSET A vector; IgG2 Fc domain engineered into the pRSET vector
